Entries after “also recorded” stand apart in the source; their conditions may differ. Like-named read-outs stand apart in the source and are kept apart here.
B1: TS-H32 (protein, listed as Trypanosoma cruzi)
chain: KKKQVFSKIFYSEDDGKTWKFGEGRSAFGCSEAVALEWEGKLIINTRVDYRRRLVYESSDMGNTWLEAVGTLSRVWGPSPKSNQPGSQSSFTAVTIEGMRVMLFTHPLNFKGRWLRDRLNLWLTDNQRIYNVGQVSIGDENSAHSSVLYKDDKLYCLHEINSNEVYSLVFARLVGELRIIKSVLQSWKNWDSHLSSICTP
B2: TS-F-47: recombinant fragment, amino acid residues 79-666 of SEQ ID NO:34 (protein, listed as Trypanosoma cruzi)
chain: GDARDWDILLAVGEVTKSTAGGKITASIKWGSPVSLKKFFPAEMEGMHTNQFLGGAGVAIVASNGNLVYPVQVTNKRKQVFSKIFYSEDDGKTWKFGKGRSDFGCSEPVALEWEGKLIINTRVDWKRRLVYESSDMEKPWVEAVGTVSRVWGPSPKSNQPGSQTSFTAVTIEGMRVMLFTHPLNFKGRCVRDRLNLWLTDNQRIYNVGQVSIGDENSAYSSVLYKDDKLYCLHEINTDEVYSLVFARLVGELRIIKSVLRSWKNWTATCPAFAPLLIQPLRRQRVVVVPLSPRLVLLAFCRQRLPKRMGGSYRCVNASTANAERVRNGLKFAGVGGGALWPVSQQGQNQRYRFANHAFTLVASVTIHEAPRAASPLLGASLDSSGGKKLLGLSYDEKHQWQPIYGSTPVTPTGSWETGKRYHLVLTMANKIGSVYIDGELLEGSGQTVVPDGRTPDISHFYVGGYKRSDMPTISHVTVNNVLLYNRRQLNTEEIRTLFLSQDLIGTEAHMDSSSDSSAHSTPSTPADSSAHSTPSTPVDSSAHSTPSTPADSSAHGTPSTPVDSSAHGTPSTPADSSAHGTPSTPVDS
B3: cruzipain: T. cruzi protease (protein, UniProt P25779 123-467, looked up)
Cruzipain: APAAVDWRARGAVTAVKDQGQCGSCWAFSAIGNVECQWFLAGHPLTNLSEQMLVSCDKTDSGCSGGLMNNAFEWIVQENNGAVYTEDSYPYASGEGISPPCTTSGHTVGATITGHVELPQDEAQIAAWLAVNGPVAVAVDASSWMTYTGGVMTSCVSEQLDHGVLLVGYNDSAAVPYWIIKNSWTTQWGEEGYIRIAKGSNQCLVKEEASSAVVGGPGPTPEPTTTTTTSAPGPSPSYFVQMSCTDAACIVGCENVTLPTGQCLLTTSGVSAIVTCGAETLTEEVFLTSTHCSGPSVRSSVPLNKCNRLLRGSVEFFCGSSSSGRLADVDRQRRHQPYHSRHRRL
B4: NGF: Mouse 7S nerve growth factor (protein)
chain: SSTHPVFHMGEFSVCDSVSVWVGDKTTATDIKGKEVTVLAEVNINNSVFRQYFFETKCRASNPVESGCRGIDSKHWNSYCTTTHTFVKALTTDEKQAAWRFIRIDTACVCVLSRKATRRG
B5: LTR: recombinant full-length C-terminal long tandem repeat of TS clone 7F (protein)
chain: NRRQLNTEEIRTLFLSQDLIGTEAHMDSSSDSSAHSTPSTPADSSAHSTPSTPVDSSAHSTPSTPADSSAHGTPSTPVDSSAHGTPSTPADSSAHGTPSTPVDSSAHSTPSTPVDSSAHSTPSTPVDSSAHGAPSTPADSSAHGTPSTPVDSSAHGTPSTPADSSAHSTPSTPADSSAHSTPSTPADSSAHSTPSTPVDSSAHGTPSTPADSSAHSTPSTPADSSAHGTPSTPVDSSAHSTPSTPVDSSAHGTPSTPVDSSAHSTPSTPVDSSAHGTPSTPVDSSAHSTPSTPADSSAHSTPSTPADSSAHGTPSTPVDSSAHSTPSTPADSSAHSTPSTPVDSSAHSTPSTPADSSAHGTPSTPVDSSAHGTPSTPADSSAHSTPSTPADSSAHSTPSTPADSSAHSTPSTPVDSSAHSTPSTPADSSAHSTPSTPADSSAHSTPSTPADSSAHSTPSTPVDSSAHSTPSTPADSSAHGTPSTPADSSAHSTPSTPVDSSAHSTPSTPADSSAHGTPSTPADSSAHSTPSTPADSSAHGTPSTPADSSAHSTPSTPAGSSANGTVLILPDGAALSTFSGGGLLLCACALLLHVFFMAVF
B6: TS-Cat-47: recombinant fragment consisting of amino acid residues 79-415 of TS (SEQ ID NO:2) (protein, listed as Trypanosoma cruzi)
chain: MVAIADARYDTSNDNSLIDTVAKYSVDDGETWETQIAIKNSRVSSVSRVVDPTVIVKGNKLYVLVGSYYSSRSYWSSHGDARDWDILLAVGEVTKSTAGGKITASIKWGSPVSLKKFFPAEMEGMHTNQFLGGAGVAIVASNGNLVYPVQVTNKKKQVFSKIFYSEDDGKTWKFGKGRSDFGCSEPVALEWEGKLIINTRVDWKRRLVYESSDMEKPWVEAVGTVSRVWGPSPKSNQPGSQSSFTAVTIEGMRVMLFTHPLNFKGRWLRDRLNLWLTDNQRIYNVGQVSIGDENSAYSSVLYKDDKLYCLHEINTDEVYSLVFARLVGELRIIKSVL

How the values were obtained:
IL-6 [1] = assay: IL-6 secretion by PBMC (ELISA); type: cell-based, human; conditions: 24 hours
Protocol: (§1) Primary cultures of human intestinal microvascular endothelial cells (HIMEC) isolated from normal jejunal mucosa/submucosal tissue were prepared as described (Strong et al., Gastroenterology 114:1244-1256 (1998)). The HIMEC were cultured in fibronectin-coated plasticware in MCDB medium (Sigma) supplemented with 20% FBS, 90 μg/ml heparin and 50 μg/ml endothelial cell growth factor (Sigma). T-24 cells (ATCC Accession No. HTB-4) were cultured in M199 medium supplemented with 10% FBS. PBMC were purified by Ficoll-Paque gradient as described (Current Protocols in Immunology, pp 7.1.1-7.1.2). Vero cells (ATCC Accession No. CCL-81) were grown in RPMI medium with 5% Nu serum and infected with the Silvio X-10/4 of T. cruzi as described previously (Chuenkova et al., J. Exp. Med. 181:1693-1703 (1995)).
(§2) Endothelial cells and T-24 cells were plated on 24-well plates at a density of 1×10^3 cells/well, while peripheral blood mononuclear cells (PBMC) were plated in the similar wells at 1×10^6/well. Triplicat cultures of cells were incubated test agents for a predetermined amount of time. […] Cytokines and chemokines released in the culture supernatants were measured by ELISA assay following the instructions of the manufacturer (Endogen). The cytokines tested were IL-1β, IL-4, IL-8, […], IL-12, IFN-γ, TNF-α, and the chemokines RANTES and MCP-1. Negative controls were cells incubated in medium containing polymixin B at 10 μg/ml, and positive controls were cells incubated with bacterial LPS at the low ng/ml range (for PBMC or HIMEC) or in the μg/ml range for carcinoma T-24 cells. In some experiments, IL-1β or TNFα were used as positive control for cytokine release.
TR peptides (Table 2) were synthesized at the Tufts Synthesis Facility (Boston, Mass.). Each peptide was purified by HPLC, and the number of amino acids and molecular weight of each peptide verified by mass spectrometry. Peptides were dissolved in growth medium (10% FCS in RPMI) and added at various concentrations to 1×10^6 PBMC/well in 24-well plates. After 24 hours, IL-6 was assayed by ELISA in the conditioned supernatants.

IL-6 [2] = assay: IL-6 secretion by T-24 carcinoma cells (ELISA); type: cell-based, human; conditions: 24 hours
Protocol: as §1, §2

Trans-sialidase assay = type: biochemical
Protocol: The trans-sialidase assay was performed as described (Scudder, P. et al., J. Biol. Chem., 268:9886-9891 (1993)) with slight modifications. Various amounts of intact enzyme or enzyme fragments were added to 50 mM PBS, Ph 7.2, containing 15% fetal calf serum and […] of [^14C]N-acetyllactosamine (4×10^5 dpm), 50 μg BSA and 0.02% NaN3 in a volume of 60 μl. After incubation for a predetermined amount of time at room temperature, the reaction mixture was diluted to 1.0 ml with distilled water and applied to a column containing 1.0 ml Q-Sepharose equilibrated with water. Sialylated product was eluted with 1 M NaCl and quantified by scintillation counting.
TS enzymatic activity was measured by the sialylation of the acceptor ^14C-labeled N-acetyllactosamine on anion exchange resins (Scudder, P. et al., J. Biol. Chem. 268:9886-9891 (1993)). Recombinant TSA-1, was expressed on insect sf9 cells and purified from serum-free medium by ion exchange chromatography (monoQ) and preparative SDS-PAGE (Wrightsman, R. A. et al., J. Immunol., 153:3148-3154 (1994).

neuroblastoma N18 cells = assay: Neurite outgrowth assay in N18 cells; type: cell-based; conditions: soluble or immobilized on plastic (500 μg/ml coating), 17 hours
Protocol: 96-well microtiter plates were coated overnight at 4° C. with the TS or peptides or fragments thereof, or with control proteins laminin (Ln) or bovine serum albumin (BSA) at 500 μg/ml. After removing the compounds, the plates were further incubated with 1% BSA for 1 hour at room temperature and immediately used as substratum for PC12 or N18 (Prasad, K., Biol. Rev. Camb. Philos. Soc., 66:431-451 (1991)) cells in serum-free RPMI/0.2% BSA. Neurite outgrowth was measured using a phase-contrast microscope 17 hours later.

PC12 cells [3] = assay: Protection of PC12 cells from apoptosis induced by trophic factor withdrawal (DAPI, TUNEL); type: cell-based
Text: PC12 cells were obtained from ATCC (Manassas, Va. (Accession No. CRL-1721)) and cultured on collagen-coated dishes in RPMI 1640 supplemented with 10% horse serum and 5% fetal bovine serum (Greene, L., and Tishler, A., Proc. Natl. Acad. Sci. USA, 73:2424-2428 (1976)). For differentiation and survival experiments, cells were washed three times in serum-free RPMI/0.2% BSA, plated in the same medium in collagen-coated plastic dishes at 2×10^5/ml, without and with growth factors, TS, recombinant proteins, synthetic peptides, for the time and concentrations indicated in the Figures.
Cell staining with 4,6-diamino-2-phenylindole (DAPI). Cells were fixed with 4% formaldehyde in PBS for 5 minutes, washed with PBS, stained with 10 μg/ml DAPI (Sigma) for 2 minutes, washed with PBS, and visualized under UV light using a fluorescent microscope. About 300-400 cells were examined under the microscope to determine the percentage of apoptotic cells.
Cell DNA nick end labeling (TUNEL) (Gavrieli, Y. et al., J. Cell. Biol., 119:493-501 (1992)) assay was performed using a kit purchased from Boehringer Mannheim as described by the manufacturer.
Protection against apoptosis of PC12 cells in serum-free medium containing a test agent (agent N) (e.g., protection induced by TS, TS fragments, NGF or other growth factors), was calculated by the formula: 100%−[(apoptosis(%) of cells kept in RPMI containing test agent N÷apoptosis (%) of cells kept in RPMI)×100%]. Testing the effect of Wortmannin (Sigma) and LY294002 (Sigma) in inhibiting the neuroprotection of TS was performed following the protocol described by others (Yao, R., and Cooper, G., Science, 267:2003-2006 (1995); D'Mello, et al., J. Neurosci., 17:1548-1560 (1997)). In brief, PC12 cells were switched from growth medium to RPMI without and with TS or various other growth factors. After 24 hours, Wortmannin and LY294002 were added to the cultures. After another 24 hours, cells were examined for apoptosis by the DAPI assay, as above.

PC12 cells [4] = type: cell-based; conditions: serum-free RPMI/0.2% BSA, collagen coated dishes, 16-17 hours
human Schwann cells = assay: Serum withdrawal-induced apoptosis of Schwann cells (DAPI); type: cell-based; conditions: serum-free DMEM, 24-72 hours
Akt kinase = assay: Immunodetection and kinase assay of activated Akt in Schwann cells; conditions: Western blot P-Akt (Ser473)
Protocol: Schwann cells, grown in 10% FCS to 70% confluency in 6-well plates, were switched to DMEM containing 0.1% FCS for 48 hours to reduce basal Akt phosphorylation. Then the cells were placed in serum-free DMEM medium for 2 hours and challenged with TS, CD or other test factors for predetermined periods of time. When the PI-3 kinase inhibitor LY294002 (Sigma) was used, the inhibitor was added to the serum-starved cells 30 minutes before challenge with TS or CD. Cell samples were lysed with lysis buffer (20 mM Tris, pH 7.5, 150 mM NaCl, 1 mM EDTA, 1% Triton X-100 (t-Octylphenoxypolyethoxyethanol), 2.5 mM sodium pyrophosphate, 1 mM glycerophosphate, 1 mM Na3VO4, 1 μg/ml leupeptin and 1 mM Phenymethylsulfonyl fluoride (PMSF)). Samples (40 μg) were run on 10% SDS-Page, blotted to nitrocellulose paper and analyzed by Western (immuno) blot with monoclonal antibody specific for P-Ser473 of Akt (New England Biolabs). Reaction was visualized by chemiluminescence using the ECL kit (New England Nuclear).
Enzymatic activity of Akt kinase was assessed using the synthetic substrate GSK-3α-fusion protein (Cell Signaling Technology, Beverly, Mass.), according to the protocol provided by Cell Signaling Technology. In short, lysates of Schwann cells subjected to various treatments were immunoprecipitated with Akt antibody coupled to agarose beads, and the immunoprecipitates incubated with GSK-3α-fusion protein as the substrate for Akt phosphorylation, in the presence of 200 μM ATP. Phosphorylation of GSK-3 fusion protein was detected by Western blot using phospho-GSK-3αβ (Ser21/9)-specific antibody (Cell Signaling Technology). The reaction product was identified by chemiluminescence using the ECL kit (New England Nuclear).

| Molecule | IL-6 secretion by PBMC (IL-6 [1]) | IL-6 secretion by T-24 cells (IL-6 [2]) | trans-sialidase (enzymatic) activity (Trans-sialidase assay) | neurite outgrowth in N18 cells (neuroblastoma N18 cells) | neurite outgrowth in PC12 cells (PC12 cells [4]) | further results |
| --- | --- | --- | --- | --- | --- | --- |
| B1 | stimulating IL-6 secretion | stimulating IL-6 secretion | enzymatically-inactive |  |  |  |
| B2 |  |  | enzymatically inactive | as effective as the native enzyme in stimulating neurite outgrowth; also recorded: active both in stimulating neurite outgrowth |  | protection of PC12 cells from apoptosis induced by trophic factor withdrawal (PC12 cells [3]; serum-free RPMI-1640/0.2% BSA, 17 hours, DAPI or TUNEL): active |
| B3 |  |  |  |  | did not induce neurite extension | neurite outgrowth in PC12 cells (PC12 cells [4]; listed as cruzipan): ineffective |
| B4 |  |  |  |  | induces neurite outgrowth | PC12 cells protected from apoptotic death (PC12 cells [3]; NGF at 0.5 ng/ml): 18% |
| B5 | upregulated IL-6 release | effectively induced release of IL-6 in a dose-dependent manner; also recorded: dose dependent secretion of IL-6 |  | did not induce neurite outgrowth | did not induce neurite outgrowth | inhibition of serum withdrawal-induced apoptosis of Schwann cells (human Schwann cells): did not promote Schwann cell survival; phosphorylation (activation) of Akt kinase in Schwann cells (Akt kinase): nor activate PI3K/Akt signaling |
| B6 |  |  |  | inactive in stimulating neurite outgrowth; also recorded: did not promote neurite outgrowth |  |  |

From US20090117593A1, “T. Cruzi-derived neurotrophic agents and methods of use therefor” (Tufts University, priority 2006, published 2009)
